The values below come from the supplement of paper PMC11908140.

B1: library; numbered along this chain (parent)
chain: MRKPRAAVGSGHRKQAASQEGRQKHAKNNSQAKPSACDGLARQPEEVVLQASVSSYHLFRDVAEVTAFRGSLLSWYDQEKRDLPWRRRAEDEMDLDRRAYAVWVSEVMLQQTQVATVINYYTGWMQKWPTLQDLASASLEEVNQLWAGLGYYSRGRRLQEGARKVVEELGGHMPRTAETLQQLLPGVGRYTAGAIASIAFGQATGVVDGNVARVLCRVRAIGADPSSTLVSQQLWGLAQQLVDPARPGDFNQAAMELGATVCTPQRPLCSQCPVESLCRARQRVEQEQLLASGSLSGSPDVEECAPNTGQCHLCLPPSEPWDQTLGVVNFPRKASRKPPREESSATCVLEQPGALGAQILLVQRPNSGLLAGLWEFPSVTWEPSEQLQRKALLQELQRWAGPLPATHLRHLGEVVHTFSHIKLTYQVYGLALEGQTPVTTVPPGARWLTQEEFHTAAVSTAMKKVFRVYQGQQPGTCMGSKRSQVSSPCSRKKPRMGQQVLDNFFRSHISTDAHSLNSAAQ
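Also: cells sorted at 72 h after reporter transfection.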

The variants in this data set derive from B1. The data set is described as follows: 8OG:A repair function score (normalized; synonymous = 0, nonsense = -1) (normalized log-likelihood score); higher = more repair activity (WT-like). Particulars: with 8OG:A DNA repair reporter (GFP) in HEK-293 MUTYH KO cells. In a few lines: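 Per-tile Rosace fitness scores were converted to a normalized repair function score anchored on synonymous and nonsense distributions. That scale puts synonymous medians at 0 and nonsense medians at -1. Variants with starting counts under 300 counts per million were discarded. Input came from sorting viable mCherry+ MUTYH knockout HEK-293 cells, carrying lentiviral MUTYH cDNA NNN codon-scan libraries in 10 pg/ml doxycycline and an 8OG:A GFP repair reporter, into GFP+ and GFP− bins at 72 h, three replicates per tile, followed by tile amplicon sequencing.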
In the case of MRKPRAAVGSGHRKQAASQEGRQKHAKNNSQAKPSACDGLARQPEEVVLQASVSSYHLFRDVAEVTAFRGSLLSWYDQEKRDLPWRRRAEDEMDLDRRAYAVWVSEVMLQQTQVATVINYYTGWMQKWPTLQDLASASLEEVNQLWAGLGYYSRGRRLQEGARKVVEELGGHMPRTAETLQQLLPGVGRYTAGAIASIAFGQATGVVDGNVARVLCRVRAIGADPSSTLVSQQLWGLAQQLVDYARPGDFNQAAMELGATVCTPQRPLCSQCPVESLCRARQRVEQEQLLASGSLSGSPDVEECAPNTGQCHLCLPPSEPWDQTLGVVNFPRKASRKPPREESSATCVLEQPGALGAQILLVQRPNSGLLAGLWEFPSVTWEPSEQLQRKALLQELQRWAGPLPATHLRHLGEVVHTFSHIKLTYQVYGLALEGQTPVTTVPPGARWLTQEEFHTAAVSTAMKKVFRVYQGQQPGTCMGSKRSQVSSPCSRKKPRMGQQVLDNFFRSHISTDAHSLNSAAQ [P244Y], the “8OG:A repair function score” value is -0.542. On to MRKPRAAVGSGHRKQAASQEGRQKHAKNNSQAKPSACDGLARQPEEVVLQASVSSYHLFRDVAEVTAFRGSLLSWYDQEKRDLPWRRRAEDEMDYDRRAYAVWVSEVMLQQTQVATVINYYTGWMQKWPTLQDLASASLEEVNQLWAGLGYYSRGRRLQEGARKVVEELGGHMPRTAETLQQLLPGVGRYTAGAIASIAFGQATGVVDGNVARVLCRVRAIGADPSSTLVSQQLWGLAQQLVDPARPGDFNQAAMELGATVCTPQRPLCSQCPVESLCRARQRVEQEQLLASGSLSGSPDVEECAPNTGQCHLCLPPSEPWDQTLGVVNFPRKASRKPPREESSATCVLEQPGALGAQILLVQRPNSGLLAGLWEFPSVTWEPSEQLQRKALLQELQRWAGPLPATHLRHLGEVVHTFSHIKLTYQVYGLALEGQTPVTTVPPGARWLTQEEFHTAAVSTAMKKVFRVYQGQQPGTCMGSKRSQVSSPCSRKKPRMGQQVLDNFFRSHISTDAHSLNSAAQ [L95Y], for which the “8OG:A repair function score” value was -0.0972.

MRKPRAAVGSGHRKQAASQEGRQKHAKNNSQAKPSACDGLARQPEEVVLQASVSSYHLFRDVAEVTAFRGSLLSWYDQEKRDLPWRRRAEDEMDLDRRAYAVWVSEVMLQQTQVATVINYYTGWMQKWPTLQDLASASLEEVNQLWAGLGYYSRGRRLQEGARKVVEELGGHMPRTAETLQQLLPGVGRYTAGAIASIAFGQATGVVDGNVARVLCRVRAIGADPSSTLVSQQLWGLAQQLVDPARPGDFNQAAMELGATVCTPQRPLCSQCPVESLCRARQRVEQEQLLASGSLSGSPDVEECAPNTGQCHLCLPPSEPWDQTLGVVNFPRKASRKPPREESSATCVLEQPGALGAQILLVQRPNSGLLAGLWEFPSVTWEPSEQLQRKALLQELQRWAGPLPATHLRHLGEVVHTFSHIKLTYQVYGLALEGQTPVTTVPPGARWLTQEEFHTAAVSTAMKKVFRVYQGQQPMTCMGSKRSQVSSPCSRKKPRMGQQVLDNFFRSHISTDAHSLNSAAQ [G475M]: the “8OG:A repair function score” value was -0.126. As for MRKPRAAVGSGHRKQAASQEGRQKHAKNNSQAKPSACDGLARQPEEVVLQASVSSYHLFRDVAEVTAFRGSLLSWYDQEKRDLPWRRRAEDEMDLDRRAYAVWVSEVMLQQTQVATVINYYTGWMQKWPTLQDLASASLEEVNQLWAGLGYYSRGRRLQEGARKVVEELGGHMPRTAETLQQLLPGVGRYTAGAIASIAFGQATGVVDGNVARVLCRVRAIGADPSSTLVSQQLWGLAQQLVDPARPGDFNQAAMELGATVCTPQRPLCSQCPVESLCRARQRVEQEQLLASGSLSGSPDVEECAPNTGQCHLCLPPSEPWDQTLGVVNFPRKASRKPPREESSATCVLEQPGALGAQILLVQRPNSGLLAGLWEFPNVTWEPSEQLQRKALLQELQRWAGPLPATHLRHLGEVVHTFSHIKLTYQVYGLALEGQTPVTTVPPGARWLTQEEFHTAAVSTAMKKVFRVYQGQQPGTCMGSKRSQVSSPCSRKKPRMGQQVLDNFFRSHISTDAHSLNSAAQ [S378N], the “8OG:A repair function score” value stood at 0.0818. Regarding MRKPRAAVGSGHRKQAASQEGRQKHAKNNSQAKPSACDGLARQPEEVVLQASVSSYHLFRDVAEVTAFRGSLLSWYDQEKRDLPWRRRAEDEMDLDRRAYAVWVSEVMLQQTQVATVINYYTGWMQKWPTLQDLASASLEEVNQLWAGLGYYSRGRRLQEGARKVVEELGGHMPRTAETLQQLLPGVGRYTAGAIASIAFGQATGVVDGNVARVLCRVRAIGADPSSTLVSQQLWGLAQQLVDPARPGDFNQAAMELGATVCTPQRPLCSQCPVESLCRARQRVEQEQLLASGSLSGSPDVEECAPNTGQCHLCLPPSEPWDQTLGVVNFPRKASRKPPREESSATCVLEQPGALGAQILLVQRPNSGLLAGLWEFPSVTWEPSEQLQRKALLQELQRWEGPLPATHLRHLGEVVHTFSHIKLTYQVYGLALEGQTPVTTVPPGARWLTQEEFHTAAVSTAMKKVFRVYQGQQPGTCMGSKRSQVSSPCSRKKPRMGQQVLDNFFRSHISTDAHSLNSAAQ [A400E], the “8OG:A repair function score” value was -0.727. As for MRKPRAAVGSGHRKQAASQEGRQKHAKNNSQAKPSACDGLARQPEEVVLQASVSSYHLFRDVAEVTAFRGSLLSWYDQEKRDLPWRRRAEDEMDLDRRAYAVWVYEVMLQQTQVATVINYYTGWMQKWPTLQDLASASLEEVNQLWAGLGYYSRGRRLQEGARKVVEELGGHMPRTAETLQQLLPGVGRYTAGAIASIAFGQATGVVDGNVARVLCRVRAIGADPSSTLVSQQLWGLAQQLVDPARPGDFNQAAMELGATVCTPQRPLCSQCPVESLCRARQRVEQEQLLASGSLSGSPDVEECAPNTGQCHLCLPPSEPWDQTLGVVNFPRKASRKPPREESSATCVLEQPGALGAQILLVQRPNSGLLAGLWEFPSVTWEPSEQLQRKALLQELQRWAGPLPATHLRHLGEVVHTFSHIKLTYQVYGLALEGQTPVTTVPPGARWLTQEEFHTAAVSTAMKKVFRVYQGQQPGTCMGSKRSQVSSPCSRKKPRMGQQVLDNFFRSHISTDAHSLNSAAQ [S105Y], the figure is -1.24.
